In the nanobody polyreactivity screen of Harvey et al. (2022):

Assay: yeast display, Sf9 membrane polyspecificity reagent, FACS + sequencing; frameworks hold sequencing errors
Outline: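 Nanobodies came from a synthetic yeast display library in Saccharomyces cerevisiae BJ5465, induced with galactose for 36–48 hours and stained for 1 hour at 4 °C with 10% biotinylated, detergent-solubilized Sf9 membrane reagent. Cells were enriched on streptavidin microbeads and then FACS-sorted, with low and high (top ~1%) gates set on anti-HA fluorescence for expression and streptavidin fluorescence for reagent binding. Each polyreactivity label reflects the gate a clone came from. Genes were amplified by colony PCR, sequenced by MiSeq 2 × 250 and filtered by CDR length.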
With “QVQLLESGAGLVQAGGSLRLIWAASGIIIGHYGMGWYRQAPGKERELVAVISSSGGRTYYADSVKGRFTISRDNAKNTVYLQMNSLKPEDTAVYYCNGGPQVRYWQGTYEYWGQGTQVTVSS” the “polyreactivity (PSR sort gate)” value was “high polyreactivity”.
In the case of “QVQLVESGGGLVQAGGSHRLSCAASGRIFVYYPRGWYRQAPGIETELVAAINAGRSTNYADSVKGRFTNSRDNAKNNVYLQMNSLKLQDTAVYFCAAVRRSRYSYRGYYWGQGTQVTVSS”, the “polyreactivity (PSR sort gate)” value is reported as “high polyreactivity”.
For “QVQLVESGGGLVQAGGSLRLSCAASGSIFRAYTMGWYRQAPGKERELVAAINWSGGSTYYADSVKGRFTISRDNAKNTVYLQMNSLKPEDTAVYYCAKRWASWRYDYWGQGTQVTVSS”, the “polyreactivity (PSR sort gate)” value was “high polyreactivity”.
With “QVQLVESGGGLVQAGGSLRLSCAASGSIFTFYAMGWYRQAPGKERELVAAISYRGGSTYYADSVKGRFTISRDNAKNTVYLQMNSLKPEDTAVYYCAAARFPVFIQGYRMEYWGQGTQVTVSS” the “polyreactivity (PSR sort gate)” value was “low polyreactivity”.
In the case of “QVQLVESGGGLVQAGGSLRLSCAASVRIFGKYAMGRYRQAPGKERELVAAITNSGGRTYYAASVKGRFTISRDNAKNTVYLQMNSLKPEDTAVYYCAALYHASTRQMDYWGQGTQVTVSS”, the “polyreactivity (PSR sort gate)” value is reported as “high polyreactivity”.
In the case of “QVQLVESGGGLVQAGGSLRLSCAASGSIFPGNAKGWYRQAPGKERELVASINWSGGSTYYADSVKGRVTISRDNAKNTVYVQMNSLKPEDTAGYYCNARAFRQGHVEYDYWGQGTQVTVSS”, the “polyreactivity (PSR sort gate)” value is reported as “low polyreactivity”.
In the case of “QVQLVESGGGLVQAGGSLRLSCAASGFTFAPNAMAWYRQAPGKERELVAAITWSGGSTYYADSVKGRFTISRDNAKNTVYLQMNSLKPEDTAVYYCNAVSRSTVTGQHDYWGQGTQVTVSS”, the “polyreactivity (PSR sort gate)” value is reported as “high polyreactivity”.
In the case of “QVQLVETGGGLVQAGGSLRLSCAASGRIFDIYAMGWYRQAPGKERELVAAIDESGGSTYYADSVKGRFTISRDNAKNTVYLQMNSLKPEDTAVYYCATDDTWTISYGWYWFTYEYWGQGTQVTVSS”, the “polyreactivity (PSR sort gate)” value is reported as “low polyreactivity”.
For “QVKLVESGGGLVQAGGSLRLSCAASGFTFRRYAMGWYRQAPGKERELVAGITSGGSTYYADSVKGRFTISRDNAKNTVYLQMNSLKPEDTAVYYCNTKVISRTSERRGNGFTRYDYWGQGTQVTVSS”, the “polyreactivity (PSR sort gate)” value was “low polyreactivity”.
For “QVQLVESGGGLVQAGGSLRLICAASGSIFRYYTMGWYRQGPGKERELVARISSSGSTNYADSVKGRFTISRDNAKNTVYLQMNSLKPEDTEVYYCAARAFSWAGYYYWGQGTQVTLSS”, the “polyreactivity (PSR sort gate)” value was “low polyreactivity”.
With “QVQLVESGGGLVQAGGSLRLSCAASGSTFGGYAMGWYRQAPGKERELVAAITWSGDTYYADSVKGRFTISRDYAKNTVYLQMNSLKPEDTAVYYCAASYLGFHMSYDYWGQGTQVNVSS” the “polyreactivity (PSR sort gate)” value was “high polyreactivity”.
For “QDQLVESGGGLVQAGGSLRLSCAATGFIIGWNTMGWYRPAPRKEREVVAAISSGGGSTYYADSVKGRFTISRDNAKNNVYLQMNSLKPEDTAVFYCNAVSFKHVYHTDTYGVNEFVYWGEGTQVTVSS”, the “polyreactivity (PSR sort gate)” value was “high polyreactivity”.
For “QVQLVESGGGLVQAGGSLRLSCAASGSTFLANTMGWYRQAPGKEREFVAAITRRGGSTYYADSVKGRFTISRDNAKNTVYLQMNSLKPEDTAVYYCNAEWDFQYPYDYWGQGTQVTVSS”, the “polyreactivity (PSR sort gate)” value was “low polyreactivity”.
With “QVQLVESGGGLVQAGGSLRLSCAASGITFEGYALGWYRQAPGKERELVAAIRSSGTSTYYADSVKGRFTISRDIAKNTVYLQMNSLKPEDTAVYYCNRARSSSRYDYWGQGTQVTVSS” the “polyreactivity (PSR sort gate)” value was “low polyreactivity”.
For “QVQLVESGGGLVQAGGSLRLSCAASGLIFFTYAMGWYRHAPGKERELVATISRGGRTKYADSVKGRFTISRDNAKNTVYLQMNSLKPEDTAVYYCAAYLSRSYYAYDYWGQGTQVTVSS”, the “polyreactivity (PSR sort gate)” value was “high polyreactivity”.
For “QVQLVESGGGLVQAGGSLRLSCAASGRIFYPNAMGWYRQAPGKERELVAAISKRGGRTYYADSVKGRFTISRDNAKNTVYLQMNSLNPEDTAVYYCATRWASYPRTGRYDYWGQGTQVTVSS”, the “polyreactivity (PSR sort gate)” value was “high polyreactivity”.
With “QVQLVESGGGLVQAGGSLRLSCAASGSIFNPYTMGWYRQAPGKEREMVAAISASGGSTYYADSVKGRFTISRDNAKNTVYLQMNSLKPEDTAVYYCNVYRITRHSYNFGFDYWGQGTQVTVSS” the “polyreactivity (PSR sort gate)” value was “low polyreactivity”.
For “QVQLVESGGGLVQAGGSLRLSCAASGIILHYYAMGWYRQAPGKERELVAAISARGGRTYYADSVKGRFTISRDNAKNTVYLQMNSLKPEDTAVYYCARYLRRSSPSPGYGYWGQGTQVTVSS”, the “polyreactivity (PSR sort gate)” value was “high polyreactivity”.
For “QVQLVESGGGLVQAGGSLRLSCAASGSTFGYNAMGWYRQAPGKERELVAAISFSSGRTYYADSVKGRFTISRDNAKNTVYLQMNSLKPEDTAVYYCAALQYRRRPYGAVERYDYWGQGTQVTVSS”, the “polyreactivity (PSR sort gate)” value was “high polyreactivity”.
For “QVQLEESGGGLVQAGGSLRLSCAASGFTFVPYAMGWYRQAPGKERELVARITWSGGSTYYADSVKGRFTISRDNAKNTVYLQMNSLKPEDTAVYYCNLDTRYPGYWRVFAKNNYWGQGTQVTVSS”, the “polyreactivity (PSR sort gate)” value was “high polyreactivity”.
For “QVQLVESGGGLVQAGGSLRLSSAASGSIFASYAMGWYRQAPGKERELVAAISRSGGSTYYADSVKGRFTISRDNAKNTVYLQMNSLIPEDTAVYYCATGKIREDDYWGQGTQVTVSS”, the “polyreactivity (PSR sort gate)” value was “high polyreactivity”.
In the case of “QVQLVESGGGLVQAGGSLRLSCAASGSTFYPYAMGWYRQAPGKERELVAAISSGGSTNYADSVKGRFTISRDNAKNTVYLQMNSLKPEDTAVYYCAAEDWSLYDYGDRLWYSPYYYWGQGTQVTVSS”, the “polyreactivity (PSR sort gate)” value is reported as “high polyreactivity”.
With “QVQLVESGGGIVQAGGSLRLSCAASGSTFFSYAMGLYRQAPGKERELVAGIDWNGGDTNYADSVKGRFTISRDNAKNTVYLQMNSLKPEETAVYYCATDYSFPGPFRRRERFDYWGQGTQVTVSS” the “polyreactivity (PSR sort gate)” value was “low polyreactivity”.
For “QVQLVESGGGLVQAGGSLRLSCAASGRIFLSYAMGWYRQAPGKERELVAGITWNGGSTYYADSVKGRFTISRDNAKNTVYLQMNSLKPEDTAVFYCAADYFGFSYAGYNYWGQGTQVTVSS”, the “polyreactivity (PSR sort gate)” value was “low polyreactivity”.
In the case of “QVQLVESGGGLVQAGGSLRLSCAASGSIFSYYAMGWYRQAPGKERELVAAIRWRTGNTYYADSVKGRFTISRDNAMNTVYLQMNSLKPEDTAVYYCNAVYRYNYGYREYEYWGQGTQVTVSS”, the “polyreactivity (PSR sort gate)” value is reported as “high polyreactivity”.
With “QVQLVESGGGLVQAGGSLRLSCAASGFIFRFNAMGWYIQAPGKSRELVAAISWSGSSTYYADSVKGRFTISRDNAKNTVYLQMTSLKPEDTAVYYCATSSLYYTIVKGDFYYWGQGTQVTVSS” the “polyreactivity (PSR sort gate)” value was “high polyreactivity”.
For “QVQLVESGGGLVQAGGSLRLSCAASGLTFRQYAMGWYRQAPGKERELVAAITNGGRTYYADSVKGRFTISRDNAKNTVYLQMNSLKPEDTAVYYCAAYVPTFKDRSRWYGRKYDYWGQGTQVTVSS”, the “polyreactivity (PSR sort gate)” value was “low polyreactivity”.
In the case of “QVQLVESGGGLVQAGGSLRLRCAASGRTFQYNAMGWYRQAPGKESELVAANTSNGGSTYYADSVKGRFTISRDNAKNTVYLQMNSLNPEDTAVYYCAKAYRYVDRGYRLLRYGFWGQGTQVTVSS”, the “polyreactivity (PSR sort gate)” value is reported as “high polyreactivity”.
With “QVQLVESGGGLVQAGGSLRLSCADSGRTFYHDTMGWYRQAPGKERELVARITRRVGSTYYADSVKGRFTISRDNAKNTVYLQMNSLKPEDTAVYYCNAKSGLYRYLLDYWGQGTQVTVSS” the “polyreactivity (PSR sort gate)” value was “high polyreactivity”.
With “QVQLVESGGGLVQAGGSLRLSCAASGSIFFYYAMGWYRQAPGKERELVAAINSDGSTNYADSVKGRFTISRDNAKNTVFLQMNSLKPEDTAVYYCAAEWFPYRWGYGYWGQGTEVTVSS” the “polyreactivity (PSR sort gate)” value was “low polyreactivity”.
With “QVQLVESRGGLVQAGGSLRLSCAASGSIFYRYAMGWYRPAPWKERELVAAIRRGGSTNYADSVKGRFTISRDNAKNTVYLQMNSLKPEDTAVYYCAAGRFTYAAQRYEYWGQGTQVTVSS” the “polyreactivity (PSR sort gate)” value was “high polyreactivity”.
For “QVQLVESGGGLVQAGGSLRLSCAASGSIFPTYAMGWYRQAPGKERELVAAISWDGDITYYADSVKGRFTISRDHAKNTVYLQMNSLKPEDTAVYYCNASLFIEIYSFQYDDHFAEYGYWGQGTQVTVSS”, the “polyreactivity (PSR sort gate)” value was “high polyreactivity”.
In the case of “QVQLVESGGGLVQAGGSLRLICAASGSTFYSNAMGWYRQAPGKERELVAAINYSGGGTYYADSVKGRFTISRDNAKNTVYLQMNSLKPEDTAVYYCAADGSYVHWEYGYWGQGTQVTVSS”, the “polyreactivity (PSR sort gate)” value is reported as “low polyreactivity”.
For “QVQLVESGGGLVQAGGSLRLSCAASGSTFPLYAMGWYRQAPGKERELVAAISSSGGSTYYADSVKGRFTISRDNAKNTVYLQMNNLKPEDTAVYYCAAAPTSYSGYGYWGQGTQVTVSS”, the “polyreactivity (PSR sort gate)” value was “low polyreactivity”.
For “QVQLVESGGGLVQAGGSLRLSCAASGSTLGQYVMGWYRQAPGKERELVAAISRRGGRTNYADSVKGRFTISRDNAKNTVYLQMNSLNPEDTAVYYCAAKFRIYRPSKYYYWGQGTQVTVSW”, the “polyreactivity (PSR sort gate)” value was “high polyreactivity”.
With “QVQLEETGGGLVQAGGSLRISCAASGFIFSYNAMGWYRQAPGKERELVATITRRGGGTTYADSVKGRFTISRDNAKNTVYLQMNSLIPEDTAVYYCNRDVNSKLSFGSVGYDYWGQGTQVTVSS” the “polyreactivity (PSR sort gate)” value was “low polyreactivity”.
In the case of “QVQLVESGGGLVQAGGSLRLSCAASGSIFGYNAMGWYRQAPGKERELVATISSGGSTNYADSVKGRFTISRDNAKNTVYLQMNSLKPEDTAVYYCAKEYGSIIPYDYWGQGTQVTVSS”, the “polyreactivity (PSR sort gate)” value is reported as “low polyreactivity”.
For “QVHLVESGGGLVQAGGSLRLSSDASGSTFHPYAMGLYRQAPGKERELVAAISWTGGRTYYADSVKGRFTISRDYAKNTVYLQMNRLKREDTAVYYCAARTYGKVGYWGQGTQVTVSS”, the “polyreactivity (PSR sort gate)” value was “high polyreactivity”.
With “QVQLVESRGGLVQAGGSLRLSCAASGIIFQSYTMGWYRQAPGKERELVAAISTSGSTYYADSVKGRFTISRDNAKNTVYLQMNSLKPEDTAVYYCATYRYRIWWWGEYDYWGQGTQVTVSS” the “polyreactivity (PSR sort gate)” value was “high polyreactivity”.
For “QVQLEESRGGLVQAGGSLRLSCAASGRIFPVYVMGWDRQAPGKERELVAAINYNGGSTTDADSVKGRFTISRDNAKNTVDLQMNSLKPEDTAVYYCAKVGVLGYYTYYYWGQGIQVTVSS”, the “polyreactivity (PSR sort gate)” value was “low polyreactivity”.
For “QVQLVESGAGLVQAAGSLRLSCDASGYIFEWNAMGWYRQAPGKERELVASIDSDGSTYYADSVKGRFTISRDNAKNTVYLQMNSLKPEDTAVYYSAKSIDGWYWRRRRYDYWGQGTQVTVSS”, the “polyreactivity (PSR sort gate)” value was “low polyreactivity”.
With “QVQLVESGGGLVQAGGSLLLSCAASGSIFGSNAMGWYTQATVKERELVAVITNGGRTYYADSVKGLFTISRDNAKNTVYLQMNSLKPEDTAVYYCAASRVYGWYGSYSTYGSVGQGTQVTVSS” the “polyreactivity (PSR sort gate)” value was “high polyreactivity”.
With “QVQLVESGGGLVQAGGSLRLSCAASGRTFQFYAMGWYRQAPGKERELVAAITSGGSTYYADSVKGRFTISRDNAKNTVYLQMNSLKPEDTAVYYCNAKYNGYYRRFSEYDYWGQGTQVTVSS” the “polyreactivity (PSR sort gate)” value was “high polyreactivity”.
